# T1: human 5T4 (32-355) tagged with poly-his at the C-terminus (ACROBiosystems, CAT #TPG-H52E5) (human, UniProt Q13641 32-355)
# T1 construct: range 32-355; Bought protein; also called recombinant human 5T4; recombinant 5T4 Ser32-Ser355; not shown: C-terminal poly-his tag
# T1 sequence (looked up): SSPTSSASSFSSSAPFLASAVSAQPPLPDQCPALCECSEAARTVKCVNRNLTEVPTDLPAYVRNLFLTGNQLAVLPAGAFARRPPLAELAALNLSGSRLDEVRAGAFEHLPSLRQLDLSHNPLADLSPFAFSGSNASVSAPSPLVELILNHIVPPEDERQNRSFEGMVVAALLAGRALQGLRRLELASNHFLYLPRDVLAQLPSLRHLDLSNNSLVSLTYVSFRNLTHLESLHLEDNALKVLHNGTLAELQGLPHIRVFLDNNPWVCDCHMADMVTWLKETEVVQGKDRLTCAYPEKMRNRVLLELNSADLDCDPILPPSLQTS
# Biological target: T1, human 5T4 (32-355) tagged with poly-his …
# Test: ELISA, 5T4-His coated on the plate
# From the text: FIGS. 1A-IC show the binding of purified chimeric anti-5T4 mAbs (VH and VL regions of mouse mAb fused to the constant regions of human IgG1 heavy chain and kappa light chain, respectively) to immobilized recombinant 5T4 in an ELISA assay. The antigen was human 5T4 (32-355) tagged with poly-his at the C-terminus (ACROBiosystems, CAT #TPG-H52E5). L3F10-C, the chimeric version of L3F10; the same naming rule is used for the rest of the antibodies. Isotype Control (IgG1), a negative control antibody.
# Purified chimeric mAbs were tested in an ELISA assay for their ability to bind to immobilized 5T4. Recombinant human 5T4 (ACROBiosystems, CAT #TPG-H52E5) in PBS was coated onto a 96-well plate (Corning, CAT #3361) at 4° C. overnight. The next day, plates were blocked using 5% BSA in TBST for 1 hour at room temperature and washed using TBST. Antibody samples at various concentrations in 5% BSA in TBST were added to the wells and incubated for 1 hour at room temperature. Plates were washed with TBST and bound antibody was labeled using mouse anti-human IgG Fc HRP (Thermo, CAT #H10007) for 1 hour at room temperature. Plates were washed again using TBST, and then ELISAs were developed using 1 Step Ultra TMB detection reagent (Thermo, CAT #34028) for 4 minutes before being quenched with ELISA stop solution (Thermo. CAT #SS04). Plates were quantified by measuring absorbance at 450 nm by plate reader.
row,Binder,binding result
1,"S2F4-C (antibody, V domains shown, Mouse VH and VL fused to human IgG1 heavy and kappa light constant regions; also called chimeric version of S2F4) VH: EVQLVESGGGLVKPGGSLKLSCAASGFTFSDYGMHWVRQAPEKGLEWIAYISFGSSTIYYADTVKGRFTISRDNAKNTLFLQMTSLRSEDTAMYYCARTHGYYRSWFAYWGQGTLVTVSA VL: DIVLTQSPASLAVSLGQRATISCRASQSVSTSSYSYMNWYQQKPGQPPKLLIKYASNLESGVPARFSGSGSGTDFTLNIHPVEEEDTATYYCQHSWEIPLTFGAGTKLELK",binds
2,"L3F10-C (antibody, V domains shown, Mouse VH and VL fused to the constant regions of human IgG1 heavy chain and kappa light chain; also called chimeric version of L3F10) VH: EVKLVESGGGLVNTGGSLKLSCAASGFTFSDYFMYWVRQTPDKRLEWVAYISNSGGNTYYPDTVKGRFTISRDNAKNTLYLQMSRLKSEDTAMYFCTRPRPYGGYYAGIYYAMDYWGQGTSVTVSS VL: DIQMTQTTSSLSASLGDRVTISCRASQDISNYLNWYQQKPDGTVKLLIYYTSRLHSGVPSRFSGSGSGTDYSLTISNLEPEDIATYYCQQYSKLPLTFGAGTKLELK",binds
3,"S3C7-C (antibody, V domains shown, Mouse VH and VL fused to human IgG1 heavy and kappa light constant regions; also called chimeric version of S3C7) VH: EVKLVESGGGLVNTGGSLKLSCAASGFNFSHYYMYWVRQTPEKRLEWVAYIGNSGGSTYNPDTVKGRFTISRDNAKNTLYLQMSRLKSEDTAIYYCARQNYYSGSFYFDSWGQGTTITVSS VL: NIVLTQSPTSMSMSVGERVTLSCKASENVGTYVSWYQQKPEQSPKLLIYGKSNRYTGVPDRFTGSGSAPDFTLTISSVQAEDLADYYCGQSYSFPFTFGTGTKLEIK",binds
4,"L1F2-C (antibody, V domains shown, Mouse VH and VL fused to human IgG1 heavy and kappa light constant regions; also called chimeric version of L1F2) VH: QVHLQQSGAELVRPGTSVKVSCKASGYAFTNYVIEWVKQRPGQGLEWIGVINPGSGGTNYNENFKGKATLTADKSSSTAYMQLSSLTSEDSAVYFCARGTVELYAMDYWGQGTSVTVSS VL: DIQMTQTTSSLSASLGDRVTISCRASQDISYYLNWYQQKPDGTVKLLISYTSRLHSGVPSRFSGSGSGTDYSLTISNLEQEDIATYFCQQDIKHPYTFGGGTELEIK",binds
5,"L1D8-CR11-C (antibody, V domains shown, Mouse VH and VL fused to human IgG1 heavy and kappa light constant regions; also called chimeric version of L1D8-CR11; LID8-CR11) VH: QVQLQQSGAELMKPGASLKLSCKATGYTFTGYWIEWVKQRPGHGLEWIGEILPGRSSTNYNERFKGKAIFTADTSSNTAYMQLSSLTTEDSAIYYCARGRRDFDYWGQGTTITVSS VL: SIVMTQTPKFLPVSAGDRVTMTCKASQSVGNNVAWYQQKPGQSPKVLIYDASNRYTGVPDRFTGSGSGTDFTFTISSVQVEDLAVYFCQQYYSSPPTFGAGTKLELK",binds
6,"L1D8-CR21-C (antibody, V domains shown, Mouse VH and VL fused to human IgG1 heavy and kappa light constant regions; also called chimeric version of L1D8-CR21; LID8-CR21) VH: QVQLQQSGAELMKPGASLKLSCKATGYTFTGSWIEWVKQRPGHGLEWIGEILPGRSSTNYNERFKGKAIFTADTSSNTAYMQLSSLTTEDSAIYYCARGRRDFDYWGQGTTITVSS VL: SIVMTQTPKFLPVSAGDRVTMTCKASQSVGNNVAWYQQKPGQSPKVLIYDASNRYTGVPDRFTGSGSGTDFTFTISSVQVEDLAVYFCQQYYSSPPTFGAGTKLELK",binds

# The next lines start with the values.
row,binding result,Binder
1,binds,"L1H7-C (antibody, V domains shown, Mouse VH and VL fused to human IgG1 heavy and kappa light constant regions; also called chimeric version of L1H7) VH: QVQLQQSGPELVKPGASVKISCKASGYAFSSSWMNWVKQRPGKGLEWIGRIYPGNGNTNYNGKFKGKATLTADKSSSTAYMQLNSLTSEDSAVYFCASRFAYWGQGTLVAVSA VL: DIVLTQSPASLAVSLGQRATISCRASKSVSTSGYSYMHWYQQKPGQPPKLLIYLASNLESGVPARFSGSGSGTDFTLNIHPVEEEDAATYYCQHSRELRTFGGGTKLEIK"
2,binds,"L1C7-C (antibody, V domains shown, Mouse VH and VL fused to human IgG1 heavy and kappa light constant regions; also called chimeric version of L1C7) VH: EFQLQQSGPEVVKPGASVKISCKASGYSFTVYNMNWVKQSNGKSLDWIGVINPNYGTVTYNQKFKGKATLTVDQSSSTAYMQLNSLSSEDSAVYYCATTATWGQGTTLTVSS VL: not shown"
3,binds,"L2B11-C (antibody, V domains shown, Mouse VH and VL fused to human IgG1 heavy and kappa light constant regions; also called chimeric version of L2B11) VH: EVKLVESEGGLVQPGSSMKLSCTASGFTFSDYYMAWVRQVPEKGLEWVGNINYDGSRTYYLDSLKSRFIISRDNGKNILYLQMSSLKSEDTATYYCAREGDNYGNSHYAMDYWGQGTSVTVSS VL: DVLMTQTPLSLPVSLGDQASISCRSSQSFVHSNGNTYLEWYLQKPGQSPKLLIYKVSNRFSGVPDRFTGSGSGTDFTLKISRVEAEDLGVYYCFQGSHVPLTFGAGTRLELK"
4,binds,"L3E1-C (antibody, V domains shown, Mouse VH and VL fused to human IgG1 heavy and kappa light constant regions; also called chimeric version of L3E1) VH: QVQLQQFGAELVKPGAAVKMSCKASGYTFTSYWITWVKQRPGQGLDWIGDIYPGGGSTNYHEKFKSKATLTVDTSSSTAYMQLSSLTSEDSAVYYCARGLRDFDYWGQGTTITVSS VL: DIQMTQTASSLSASLGDRVTISCRASQHINNYLNWYQQKPDGTVKLLIYSTSRLHSGVPSRFSGSGSGTDFSLTISNLEPEDIATYYCQQYSKLPRTFGGGTKLEIK"
5,binds,"L3D5-C (antibody, V domains shown, Mouse VH and VL fused to human IgG1 heavy and kappa light constant regions; also called chimeric version of L3D5) VH: GVQLQQSGPELVKPGASVKISCKASGYTFTDFYMNWVKQSHGKSLEWIGDINPNNGVTTYNQKFKDKATLTVDKSSSTAYMELRSLTSEDSAVYYCATGAIHYGYDGYFDVWGAGTTVTVSS VL: DIVMTQSPATLSVTPGDRVSLSCRASQSISDYLHWYQQKSHESPRLLIKYASQSISGIPSRFSGSGSGSDFTLSINSVEPEDVGVYYCQNGHSFPLTFGAGTKLELK"
